Measurements published in article PMC4228697.

Legend:
Assay in all cases: SPR
[1] = target: CCR2 (wheat-germ proteoliposome) (human) (UniProt P41597)
[2] = target: CXCR1 (wheat-germ proteoliposome) (human) (UniProt P25024)
[3] = target: CXCR2 (wheat-germ proteoliposome) (human) (UniProt P25025)
[4] = target: C5aR (wheat-germ proteoliposome) (human) (UniProt P21730)
Chain of UniProt P21730 (P21730 whole entry): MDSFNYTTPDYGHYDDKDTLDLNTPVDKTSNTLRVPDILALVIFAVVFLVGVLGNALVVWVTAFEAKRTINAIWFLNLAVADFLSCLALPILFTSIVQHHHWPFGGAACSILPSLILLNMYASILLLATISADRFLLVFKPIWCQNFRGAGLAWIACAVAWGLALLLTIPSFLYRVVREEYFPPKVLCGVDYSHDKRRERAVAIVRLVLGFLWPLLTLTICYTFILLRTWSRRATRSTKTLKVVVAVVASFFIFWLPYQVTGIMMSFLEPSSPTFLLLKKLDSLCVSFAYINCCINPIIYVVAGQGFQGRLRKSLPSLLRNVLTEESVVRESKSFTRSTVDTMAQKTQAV

Chain of UniProt P25024 (P25024 whole entry): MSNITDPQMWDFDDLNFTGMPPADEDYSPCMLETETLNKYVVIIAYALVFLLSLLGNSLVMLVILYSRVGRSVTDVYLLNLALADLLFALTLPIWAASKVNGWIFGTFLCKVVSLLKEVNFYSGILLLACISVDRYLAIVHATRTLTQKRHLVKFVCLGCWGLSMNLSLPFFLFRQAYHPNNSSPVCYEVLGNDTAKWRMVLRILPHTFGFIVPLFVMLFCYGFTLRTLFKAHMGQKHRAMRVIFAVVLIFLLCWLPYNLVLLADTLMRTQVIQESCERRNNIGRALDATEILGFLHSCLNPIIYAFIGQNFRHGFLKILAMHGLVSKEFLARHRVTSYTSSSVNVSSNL
Chain of UniProt P25025 (P25025 whole entry): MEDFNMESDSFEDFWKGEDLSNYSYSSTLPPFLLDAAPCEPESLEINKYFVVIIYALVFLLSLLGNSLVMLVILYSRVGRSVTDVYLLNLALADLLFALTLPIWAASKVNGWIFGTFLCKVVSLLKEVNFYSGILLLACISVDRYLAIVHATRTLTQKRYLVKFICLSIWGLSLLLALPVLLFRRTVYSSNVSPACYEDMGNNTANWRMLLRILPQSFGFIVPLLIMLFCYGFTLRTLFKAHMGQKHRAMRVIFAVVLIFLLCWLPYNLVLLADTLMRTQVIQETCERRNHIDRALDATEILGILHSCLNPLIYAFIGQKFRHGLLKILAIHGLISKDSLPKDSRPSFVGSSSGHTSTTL

| Substance | Kd [1] | Kd [2] | Kd [3] | Kd [4] |
| --- | --- | --- | --- | --- |
| MCP-1 (from UniProt P13500 24-99) (ligand) | 0.84 nM |  |  |  |
| γ-Hemolysin component HlgA (from UniProt P0A074 30-309) (natural protein) | 3.51 nM | 5.69 nM | 27.2 nM |  |
| γ-Hemolysin component HlgC (from UniProt Q07227 30-315) (natural protein) |  |  |  | 5.64 nM |
